The supplement of paper PMC10567573

B1: FCHO1 (parent)
chain: FSDPSQSDPETKDFWLNMAALTEA
B2: EPB41L3 (parent)
chain: SDYISEFRFAPNHTKELEDKVIEL

Variants of: B1
Test: protein stability index of a GFP-peptide fusion (GPS, HEK-293T) (PSI 1-6); higher = more stable
Conditions: c terminus: a fixed tail appended
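Note: lentivirally expressed fusions sorted by FACS into six bins by GFP to DsRed ratio, PSI derived from sequencing read proportions per bin multiplied by bin number.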

Protein stability index, by site and new letter:
T22: V 3.44, Y 2.82, P 2.34, R 2.46, W 3.27, L 2.82, M 3.02, N 2.93, S 2.34, Q 2.9
E23: T 2.79, N 2.58, S 2.23, L 2.3, H 2.17, G 2.61, M 2.08, R 3.31, I 1.9, K 2.3, C 1.63, D 2.75, F 1.59, A 2.15, P 2.33, W 2.04, Q 2.86, V 2.24, Y 2.1
A24: K 3.38, D 2.8, Y 2.29, N 3.23, S 3.4, E 3.3, T 2.52, V 1.82, R 3.38, F 2.56, G 2.5, M 2.62, Q 3.27, I 1.92, C 2.36, H 2.89, L 2.67, P 2.06, W 2.8

Variants of: B2
Test: as above
Conditions: c terminus: a fixed tail appended

Protein stability index of substitutions, site by site:
H13: R 1.94, L 2.31, G 2.16, S 2.06, W 1.72, C 2.19, D 3.71, Y 2.35, V 1.59, Q 2.46, I 2.28, N 2.36, P 1.99, T 2.08, F 1.92, E 3.3, M 2.06, K 2.29, A 2.84
P11: M 2.65, D 4.29, K 2.3, L 2.11, H 1.88, V 2.23, S 2.26, I 2.49, A 2.68, F 2.16, Y 1.8, W 2.33, Q 2.57, N 2.26, R 2.64, C 2.12, E 4.36, T 2.82, G 2.44
E16: A 2.56
F7: E 4.96, N 4.96, M 4, V 4.46, C 4.2, H 4.26, T 4.57, P 4.75, I 3.94, D 4.89, W 2.42, Y 3.71, K 4.38, R 4.4, S 4.12, A 4.4, G 4.91, L 3.6, Q 4.79
F9: L 4.09, R 4.58, H 4.41, Y 2.25, I 3.83, P 4.76, Q 4.63, N 4.59, T 4.24, D 4.97, W 3.54, M 4.03, G 4.6, K 4.29, C 3.93, V 4.44, A 4.79, E 4.97, S 4.79
D2: G 1.45, C 2.46, F 2.02, Y 1.75, S 2.11, V 2.02, N 1.88, T 1.95, L 2.18, P 2.29, I 1.9, Q 1.62, R 2.02, M 2.25, K 2.45, W 1.89, H 1.85, E 2.48, A 2.21
N12: M 1.89, F 1.9, V 2.23, S 2.21, W 1.5, L 2.2, K 2.18, Q 2.35, D 3.9, R 1.43, C 1.47, Y 2.1, G 1.83, P 2.19, I 1.82, E 3.54, H 1.95, A 2.2, T 2.2
A10: W 2.96, D 4.37, E 4.21, L 3.45, P 3.96, V 1.84, I 2.33, Y 3.09, R 3.54, T 2.05, S 2.61, H 1.86, C 1.56, M 3, F 3.3, Q 2.35, N 3.33, G 3.92, K 3.99
K15: Q 2.34, L 1.75, I 1.9, S 2.07, N 2.12, A 1.9, C 2.25, D 2.49, R 1.74, M 2.25, F 2.15, Y 1.63, G 2.1, V 2.04, T 2.1, W 1.77, H 1.97, P 2.29, E 3.46
R8: H 4.48, K 4.26, G 4.38, P 4.4, E 4.47, L 3.24, T 3.99, N 3.94, A 3.7, I 3.24, Q 4.1, W 3.17, F 2.04, D 4.51, Y 3.31, S 4.3, M 3.49, V 3.39, C 4.05
S1: F 1.96, C 1.75, E 2.15, G 2.12, D 2.25, Q 2.45, H 2.1, M 1.92, W 1.76, L 2.19, V 1.74, P 2.71, N 1.94, R 1.85, Y 2.38, K 1.72, A 2.38, T 2.01, I 1.71
S5: N 2.22, D 3.8, V 2.19, K 2.75, E 3.79, F 1.74, R 2.62, G 1.8, L 1.92, T 2.18, Y 1.66, A 1.93, P 2.24, M 1.27, C 1.97, H 2.15, Q 2.7, I 2.02, W 1.82
I4: F 2.77, P 3.76, V 3.02, M 3.18, T 2.65, Y 3.65, A 3.63, Q 3.98, D 4.2, G 4.11, K 3.23, W 3.03, H 3.96, E 3.92, L 2.36, C 3.6, S 3.49, R 3.13, N 4.27
T14: V 2.42, A 2.16, C 2.02, G 1.88, R 2.08, I 2.7, S 1.76, D 2.49, P 1.37, M 2.65, W 2.18, N 2.25, Y 2.06, L 2.23, K 1.4, E 2.74, H 1.68, F 1.97, Q 2.55
E6: N 1.83, Y 1.84, W 2.23, R 2.13, T 1.82, Q 2.02, S 2, H 1.43, G 2.28, C 1.92, V 2.06, K 1.85, I 2.12, M 1.92, L 1.84, A 1.67, F 1.52, D 1.93, P 2.43
Y3: E 4.43, S 3.59, C 2.38, T 3.06, P 2.4, R 2.34, F 1.91, H 2.91, G 2.94, M 2.29, L 2.08, K 2.69, V 1.97, W 2.39, N 3.18, Q 3.28, A 2.76, I 1.86, D 4.03
